Source: paper PMC6032885

Target: TbAlsin (T. brucei)
Assay: co-IP; equal volumes (10 uL each) of in vitro translated 35S-Met-labelled HA-tagged TbVps9 protein (bait) and TbRab (prey) mixed, 1 h at room temperature; anti-HA polyclonal antibody and protein A beads; 7 washes with 50 mM Tris pH 7.5, 150 mM NaCl, 10 mM EDTA, 0.1% Triton X-100, 10 mM MgCl2; SDS-PAGE and autoradiography

TbRab5A^SN (natural protein)
percent of TbAlsin bound: 50%
